# Biological target: HRV-A and B strains tested
# Assay: binding to HRV; format not stated in this example
binder,measurement,value
"TCN-711 (6893_E11) (antibody, human IgG1, lambda, V domains shown) VH: QVQLHQWGTGVLKPSGTLSLTCGVYGGSLTDFYWTWIRQSPARGLEWLGEIDRDGATYYNPSLKSRITISIDTSKKQFSLNLRSVTAADRAVYYCARRPMLRGVWGNFRSNWFDPWGQGTQVTVSS VL: QSVLTQPPSVSAAPGQKVSISCSGSSSNIGYSYVSWYQQVPGSAPKLLIYENNKRPSGIPDRFSASKSGTSATLDITGLQTGDEADYYCGTWDTRLFGGVFGGGTKLTVLG",EC50,0.007 to 0.07 nM
